# Laboratory results published in PMC4914967, “An evolutionarily conserved SSNA1/DIP13 homologue is a component of both basal and apical complexes of Toxoplasma gondii” (Scientific Reports, 2016).
# Molecular target: the molecule itself
# Assay: SDS-PAGE with Coomassie staining and anti-His immunoblot; purified His-tagged recombinant TgDIP13 resolved on a gel; bands at ~18 kDa (monomer) and ~36 kDa (dimer)
protein,measurement,value
"His-tagged recombinant TgDIP13 (Toxoplasma gondii SSNA1/DIP13 homologue) (natural protein, UniProt A0A125YRV3 1-150, looked up, TgDIP13, the SSNA1/DIP13 homologue of Toxoplasma gondii (ToxoDB entry TGME49_295450); the TgDIP13 gene was amplified from T. gondii cDNA with primers ML2448/ML2449 and cloned NdeI/XhoI into pET24a+; Apparent mass of the monomer ~18 kDa; also called T. gondii SSNA1/DIP13 homologue; not shown: His6, C-terminal, kept) MTSTTNSNLHNYNHELVACIDDLRRKREEVHRQIIKEEEDRAKVQKEIALLQERLQKLNDSITRKIQARNEYDKTILETEAAYTKILESAQTLLHVLKRESVHLGRKTSGDRAELPGIGITGVGVDYSPNSVSELSHRRAEKGKPTAGAG",stoichiometry N,2
